Measured values from patent US20100144847A1.

Molecular target: tropomyosin
Assay: cell-based or functional assay

In the case of GFP-CKIIα (from UniProt Q60737 1-391), the colony formation inhibition assay, A9 cells under G418 selection is reported as over 2000 colonies.
